The DeepSol protein solubility set

experiment: soluble on expression in E. coli; label from the status in PepcDB or PDB records

| Sequence | soluble on expression in E. coli |
| --- | --- |
| MTENIHKHRILILDFGSQYTQLVARRVRELGVYCELWAWDVTEAQIRDFNPSGIILSGGPESTTEENSPRAPQYVFEAGVPVFGVCYGMQTMAMQLGGHVEASNEREFGYAQVEVVNDSALVRGIEDALTADGKPLLDVWMSHGDKVTAIPSDFITVASTESCPFAIMANEEKRFYGVQFHPEVTHTRQGMRMLERFVRDICQCEALWTPAKIIDDAVARIREQVGDDKVILGLSGGVDSSVTAMLLHRAIGKNLTCVFVDNGLLRLNEAEQVLDMFGDHFGLNIVHVPAEDRFLSALAGENDPEAKRKIIGRVFVEVFDEEALKLEDVKWLAQGTIYPDVIESAASATGKAHVIKSHHNVGGLPKEMKMGLVEPLKELFKDEVRKIGLELGLPYDMLYRHPFPGPGLGVRVLGEVKKEYCDLLRRADAIFIEELRKADLYDKVSQAFTVFLPVRSVGVMGDGRKYDWVVSLRAVETIDFMTAHWAHLPYDFLGRVSNRIINEVNGISRVVYDISGKPPATIEWE | soluble |
| MQRVVVAIDAKRVDGEFMVFTHSGKKNTGILLRDWVVEVEKRGAGEILLTSIDRDGTKSGYDTEMIRFVRPLTTLPIIASGGAGKMEHFLEAFLAGADKALAASVFHFREIDMRELKEYLKKHGGSGQAVVVAIDAKRVDGEFMVFTHSGKKNTGILLRDWVVEVEKRGAGEILLTSIDRDGTKSGYDTEMIRFVRPLTTLPIIASGGAGKMEHFLEAFLAGADAALAASVFHFREIDMRELKEYLKKHGVNVRLEGLLEHHHHHH | soluble |
| SLTTENQNPLVLDKNEEISQQKADDIRLQLRQEPEVKRLAQQIDVKNQMELLEYGKEPAVEISKFSDRILGMMKTTSVTDSGTMLTQLGKIMDRFDKNDFDEPKGLMAKIFKRGGSMIEKIFKKYQTLGGEIEKIHVEISKYKDEMTKTNYTLDEMYENNIKYYMELEKYVVAGQMKLEEMQSILPSYEEKAASGNQLAQMQLDTLRNGIQALEERVYDLDMARMVALQTAPQIRLLQRGNAKLIGKINSAFIITIPIFKNGIIQAVTVKRQKLVADSMSELDRRTNEMLKRNAENISSQSVEIARMAGRPSIDIETIESSWNTIVSGMQETKQIEEENKRLREDGARRIAQLQDNIKKAALQQ | soluble |
| MGVDRQILVEGDNVTKPKNGQTVTCHYVLTLENGKKIDSSRDRGTPFKFKIGKGEVIKGWDQGVAQMSVGEKSKLTISADLGYGPRGVPPQIPANATLVFEVELLGVN | soluble |
| MGSDKIHHHHHHMKYYFAPLEGITGYIYRNAYEKFFGGIDKYFTPFIVPTSSKSLTSRELKDVLPENNKVTFLVPQILTNDANKFIFTTEKLMNLGYSEVNLNLGCPSGTVVSKGRGAGFLKKRQELDEFLEKIFSKSPAKISIKTRIGKDSPDEFYELIKIFNKYPLEELIIHPRIQTDFYNNKPNMKVFKDALELSKSTVCYNGDIFQSNDYIKLIEEFSNLGVVMLGRGIISNPNIIKKINSNNVLEKEVLKKFHDAIYEEYQDILSGEKNVLFKMKEIWFYMIHLFKDSDKFAKKIRKANRLRDYEAIISALFGEFDLI | not soluble |
| SLTASIVYLNNVRLETGFAKDHHELTYTKTARYTLAIQEGKIQAIIPQNQVTEKQQGTDLNGQLAIPAFQESHNHLDKTYLSLGWRASQPVKNLKERLADEASELKLLAPSTEQRATAMIEKLIGYGASYIRTHVNIDPYVELENFWGVKRALEKYAHVIDYDIVVFPQHGLLKNPQTVLLMREALKNGGTMVGGLDPAGIDYAIEESLETIFDLAEEFQVGIDIHLHDTGEVGVYTIDKFLDILEERKFTQRTAISHAFALLDVRPAEKEKLYQRLATHQTAIMSTIPYDPRYLLPPIDVLRQAGVSVHLGSDGFFDSWSSNVSGDLFEKLRNFCEMTGKITEEQLTQAYVHGCGKVAPFSFEEERLWFTEGDEANFIFTEAASTAEVIARKPQKRQIMLKGQWV | soluble |
| MSLDGIIPVVEKKDFLRWFLKEFTLKKRECSWLLNYLMSDDDLMENVHFVEEAERCPKALIMSTNDVHTVPFCFHKYQQVTMDAEKAFHDIRMNPEEAIYIQLHFSGAKHNPNYIAVLEDNPYVPENEDLIAKQKKLAEAFLERSVQSFEEKELLRRIDEALDARDKETFLTLSQQLQHLRQHSDEGHHHHHH | soluble |
| MIGPISQINISGGLSEKETSSLISNEELKNIITQLETDISDGSWFHKNYSRMDVEVMPALVIQANNKYPEMNLNLVTSPLDLSIEIKNVIENGVRSSRFIINMGEGGIHFSVIDYKHINGKTSLILFEPANFNSMGPAMLAIRTKTAIERYQLPDCHFSMVEMDIQRSSSECGIFSFALAKKLYIERDSLLKIHEDNIKGILSDGKNPLPHDKLDPYLPVTFYKHTQGKKRLNEYLNTNPQGVGTVVNKKNETIVNRFDNNKSIVDGKELSVSVHKKRIAEYKTLLKV | not soluble |
| MGSDKIHHHHHHMNFKRLIIYEAFARAYPGEKGKKFDSLIKDLERLKGMGINTVWLMPIHPTGIEGRKGTLGSPYAIRDYYEIDPLIGTKDDFKRFVKRAHELNMYVLMDMVLNHAAADNVLVREHPEWFLRDEKGNPTRKVPDWTDIVDFDYSNGELRKYMINMMKYWVEEFDVDGFRCDVAGLVPLDFWLQARKELDPVKRLIWLSETHDPYMYQAFDITYDYDGYYKFRDFIEGRGSLREYVDFLRMQDHMYPRGYIKMRFLENHDQPRIAKFIEEDSLVHWIAFLFTFKGVPLVHNGQEYGLKEDVDIFNEYTLPFPMEENRISILHRKLAHYRYGTSVFSEGEMLFVKNDQPEKVISYLWRYENRYILCMLNPLLENTKVTLDFSGIWESACIHSKNVFNDEIVRVPVKNSRATVEIGKEPLILSFVLY | not soluble |
| MATYRKSRAFAPEGFFECEGRGLEWLGAAHAQGGPRVVQVYGWGKDYLDIERVGSASPTPQAARAFGAALARMHDAGAKYFGSAPDGYNGTCYFGPLQDPVKMDTGEWTDPISYFADGRLRPMVNLGVKRGELDKRDVELTERVIEALPDLMGRAAADKPARIHGDLWSGNVMWTADSGQSEAVLIDPAAHGGHREEDLAMLHLFGMSYLSEITEGYQSVHPLKAGWQERITLWQLYPIAGHCVFFGGGYVNEYRSMCRSLLKLEHHHHHH | not soluble |
| MSPSSATPARCSIARTLELLGDKWTLLIVRDAFWGHSRFSEFTRSLGVASDVLTARLAMLVDEGILERRAYRQEGSRERLEYVLTEKGKQLHVVIGALGQFGRDHLPRPGSTSPEYSDETTGEAVSLAFVTDDGRRVSASTLHVQQGTPAPAADPQG | not soluble |
| MSIQYEAPLADSYGVADSFPKDFGYGEEEGDIEDSPSPSDSKPRILLMGLRRSGKSSIQKVVFHKMSPNETLFLESTNKIYKDDISSSSFVNFQIWDFPGQVDFFDPTFDYELIFRGTGALIFVIDAQDDYVEALSRLHLTVSRAYRVNPEINFEVFIHKVDGLSDDHKIETQRDIHQRANDDLADASLEKLHLSFYLTSIYDHSIFEAFSKVVQKLIPQLPTLENLLNIFISNSGIEKAFLFDVVSKIYIATDSSPVDMQSYELCCDMIDVVIDVSCIYGLKEDGSGSAYDKESMAIIKLNNTTVLYLKEVTKFLALVCILRGESFERKGLIDYNFHCFRKAIHEVFEVGVSTSRTSNQPVGTPLMKTVALNGTPRSTV | soluble |
| MGFEQLAELRDRLRAQAAQAKPAQTKSSAGRAKKREAVEPGVEAIWRLQRHFPLAFPKSPAAKVPLKQGILQDAQQHLELLGITAEQLKQAIATWCQGSRYWSCMVEDAPRLDLQGQVAGKVTAEQAVYARRQASRRQREQMREKRAKRAQAGGEAPAATEAPTPEAPATEASPEAN | not soluble |
| GPGSMFYKIVLQRTVNVKPADLCNTLNRSLLTFLREAVEGKPLPSPDSIASIALDYVTASKSSAVVIAVLDILNAETLQGKVLDDGSVSFRLTYEAMVLKLHRGEVLDLLVSDVDETGFWASVYGVNKLFVNRNQMGEDMKTGKSEWSFEAETAAWVSNDDRRSIKKDTMVRLRVIAETPQSERGMAVGTIGAPFLGPRVGSY | not soluble |
